In patent US6673770B1, “Peptides for the treatment, prophylaxis, diagnosis and monitoring of autoimmune diseases” (Upither B.V., priority 1998, dated 2004):

Biological target: MHC class II RT1.B^L (Lewis rat), isolated molecules (rat (Lewis))

Substance: mycobacterial hsp65 180-188 peptide …
- IC50: 32 to 64 µM
